Molecular target: T1, NRT1.1-His (Arabidopsis thaliana, UniProt Q05085 1-590)
T1 sequence (looked up): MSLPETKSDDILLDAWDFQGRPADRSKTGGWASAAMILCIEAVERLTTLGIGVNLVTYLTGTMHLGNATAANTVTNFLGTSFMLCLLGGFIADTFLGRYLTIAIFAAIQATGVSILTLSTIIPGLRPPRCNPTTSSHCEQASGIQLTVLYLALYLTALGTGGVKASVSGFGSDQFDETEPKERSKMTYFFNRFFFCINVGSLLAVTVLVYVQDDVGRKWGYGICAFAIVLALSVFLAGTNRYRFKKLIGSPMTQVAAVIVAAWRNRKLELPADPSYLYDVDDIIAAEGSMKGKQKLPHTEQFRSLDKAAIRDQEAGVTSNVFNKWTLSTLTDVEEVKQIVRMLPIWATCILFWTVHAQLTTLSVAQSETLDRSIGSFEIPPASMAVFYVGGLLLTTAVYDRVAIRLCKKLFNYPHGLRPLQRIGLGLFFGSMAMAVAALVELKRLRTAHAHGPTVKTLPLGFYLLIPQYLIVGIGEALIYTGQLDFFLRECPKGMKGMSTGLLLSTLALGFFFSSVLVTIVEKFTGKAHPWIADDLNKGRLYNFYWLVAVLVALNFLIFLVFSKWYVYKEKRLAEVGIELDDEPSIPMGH
Assay: pull-down

B1: CPK6-GST (enzyme, Arabidopsis thaliana, UniProt Q38872 1-544, looked up)
chain: MGNSCRGSFKDKIYEGNHSRPEENSKSTTTTVSSVHSPTTDQDFSKQNTNPALVIPVKEPIMRRNVDNQSYYVLGHKTPNIRDLYTLSRKLGQGQFGTTYLCTDIATGVDYACKSISKRKLISKEDVEDVRREIQIMHHLAGHKNIVTIKGAYEDPLYVHIVMELCAGGELFDRIIHRGHYSERKAAELTKIIVGVVEACHSLGVMHRDLKPENFLLVNKDDDFSLKAIDFGLSVFFKPGQIFKDVVGSPYYVAPEVLLKHYGPEADVWTAGVILYILLSGVPPFWAETQQGIFDAVLKGYIDFDTDPWPVISDSAKDLIRKMLCSSPSERLTAHEVLRHPWICENGVAPDRALDPAVLSRLKQFSAMNKLKKMALKVIAESLSEEEIAGLRAMFEAMDTDNSGAITFDELKAGLRRYGSTLKDTEIRDLMEAADVDNSGTIDYSEFIAATIHLNKLEREEHLVSAFQYFDKDGSGYITIDELQQSCIEHGMTDVFLEDIIKEVDQDNDGRIDYEEFVAMMQKGNAGVGRRTMKNSLNISMRDV
B1: binds.

From publication doi:10.1101/2022.10.06.511240 (bioRxiv, 2022)
